Columns and labels:
[1] = target: T1, AtERF96 WT (Arabidopsis thaliana, UniProt Q9LSX0 1-131); experiment: X-ray crystallography
[2] = target: T1, AtERF96 WT; experiment: EMSA

T1 sequence (Q9LSX0 whole entry): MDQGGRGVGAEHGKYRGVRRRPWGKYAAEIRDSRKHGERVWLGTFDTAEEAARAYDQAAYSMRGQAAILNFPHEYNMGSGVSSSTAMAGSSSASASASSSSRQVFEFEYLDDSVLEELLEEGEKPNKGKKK

Binder	binding result [1]	binding result [2]
GCC11 (crystal) (dsDNA) DNA 1: TAGCCGCCAGC DNA 2: GCTGGCGGCTA	binds	
GCC11 probe (dsDNA) DNA 1: TAGCCGCCAGC DNA 2: GCTGGCGGCTA		binds

From article doi:10.1101/302299
